Assay results from patent US20240368285A1 (HEFEI TG IMMUNOPHARMA, published 2024).

How the values were obtained:
[1] = target: T1, MICA protein (SPR analyte) (human, UniProt Q29983 24-308, limits assumed); test: SPR, Biacore 8K, antibody captured on protein A chip, MICA as analyte
T1 construct: also called major histocompatibility complex class I chain related polypeptide A
T1 sequence: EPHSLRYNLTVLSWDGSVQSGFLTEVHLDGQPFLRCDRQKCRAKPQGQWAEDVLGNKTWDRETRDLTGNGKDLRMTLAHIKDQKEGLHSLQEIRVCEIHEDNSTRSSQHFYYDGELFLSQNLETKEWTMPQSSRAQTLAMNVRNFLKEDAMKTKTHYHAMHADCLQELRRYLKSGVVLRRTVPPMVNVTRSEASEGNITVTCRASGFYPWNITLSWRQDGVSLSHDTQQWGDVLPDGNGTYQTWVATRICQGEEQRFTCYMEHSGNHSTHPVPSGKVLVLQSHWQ
Experimental: In a Biacore 8K (Cytiva) system, the antibody was diluted to a concentration of 10 µg/mL with running buffer (HBS-EP), and the antibody was conjugated onto a protein A (Cytiva, 29127556) chip at a flow rate of […].
Kinetic and affinity data of binding of the maternal antibody h5A1 and the affinity maturation antibody h5A1002 and MICA were detected.

MICA002α3-Fc = target: T2, MICA002α3-Fc (human); test: ELISA on coated MICA*002 α3-Fc (1 µg/ml), HRP anti-human Fab secondary, OD450
T2 construct: Produced in the Applicant's laboratory; also called MICA*002-Fc; domain α3 of MICA-002 Fc fusion protein
Experimental: (§1) After the antibodies were added, signal intensity was used for judging the binding characteristics of the antibodies and MICA and MICB.
(§2) The fusion proteins (produced in the Applicant's laboratory; an amino acid sequence of MICA002α3-Fc is as set forth in SEQ ID NO: 22; an amino acid sequence of MICA005α3-Fc is as set forth in SEQ ID NO: 24; an amino acid sequence of MICA008α3-Fc is as set forth in SEQ ID NO: 25; an amino acid sequence of MICA004α3-Fc is as set forth in SEQ ID NO: 23; an amino acid sequence of MICB001α3-Fc is as set forth in SEQ ID NO: 26; and an amino acid sequence of MICB005α3-Fc is as set forth in SEQ ID NO: 27) were diluted to a concentration of 1 μg/ml with PBS and then added into a 96-well plate in a volume of 100 μl/well. The plate was placed at 4° C. overnight. The PBS in the 96-well plate was removed by sucking. After the plate was washed with PBST (that is, PBS having a pH value of 7.2 included 0.1 volume % of Tween 20) for 6 times, PBS containing 10% of BSA was added in a volume of 200 μl/well. The plate was incubated at 37° C. for 2 hours for blocking. The blocking solution was removed. […]

MICA005α3-Fc = target: T3, MICA005α3-Fc (human); test: ELISA on coated MICA*005 α3-Fc (1 µg/ml), HRP anti-human Fab secondary, OD450
T3 construct: also called MICA*005-Fc; domain α3 of MICA-005 Fc fusion protein
Experimental: as §1, §2

MICA008α3-Fc = target: T4, MICA008α3-Fc (human); test: ELISA on coated MICA*008 α3-Fc (1 µg/ml), HRP anti-human Fab secondary, OD450
T4 construct: also called MICA*008-Fc; domain α3 of MICA-008 Fc fusion protein
Experimental: as §1, §2

MICA004α3-Fc = target: T5, MICA004α3-Fc (human); test: ELISA on coated MICA*004 α3-Fc (1 µg/ml), HRP anti-human Fab secondary, OD450
T5 construct: also called MICA*004-Fc; domain α3 of MICA-004 Fc fusion protein
Experimental: as §1, §2

MICB001α3-Fc = target: T6, MICB001α3-Fc; test: ELISA on coated MICB*001 α3-Fc (1 µg/ml), HRP anti-human Fab secondary, OD450
T6 construct: also called MICB*001-Fc; domain α3 of MICB-001 Fc fusion protein
Experimental: as §1, §2

MICB005α3-Fc = target: T7, MICB005α3-Fc; test: ELISA on coated MICB*005 α3-Fc (1 µg/ml), HRP anti-human Fab secondary, OD450
T7 construct: also called MICB*005-Fc; domain α3 of MICB-005 Fc fusion protein
Experimental: as §1, §2

[2] = target: T8, MICA on human tumor cells (A-375, A549, HCT-15, MDA-MB-231) (human, UniProt Q29983 24-383); test: flow cytometry on HCT-15 cells, Alexa-647 goat anti-human secondary, average fluorescence intensity
T8 construct: whole, on cells
T8 sequence (looked up): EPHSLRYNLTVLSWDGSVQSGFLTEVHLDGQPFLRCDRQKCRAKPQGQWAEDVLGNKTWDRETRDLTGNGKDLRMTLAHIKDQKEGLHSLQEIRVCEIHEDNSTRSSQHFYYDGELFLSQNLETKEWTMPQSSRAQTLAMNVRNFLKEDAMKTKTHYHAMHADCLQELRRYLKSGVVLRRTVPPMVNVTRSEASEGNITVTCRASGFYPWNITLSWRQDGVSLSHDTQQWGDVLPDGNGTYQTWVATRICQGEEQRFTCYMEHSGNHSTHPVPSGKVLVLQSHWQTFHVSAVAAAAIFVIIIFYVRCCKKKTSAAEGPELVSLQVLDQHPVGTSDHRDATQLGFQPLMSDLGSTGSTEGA
Experimental: (1) Tumor cells were diluted to a density of 2×10⁶/mL with PBS and then added into a 1.5 ml EP tube in a volume of 100 l/tube. 10 l/tube of goat serum was added into the EP tube; and blocking was conducted at 4° C. for 30 min. Antibody h5A1 (having a heavy chain sequence as set forth in SEQ ID NO: 11 and a light chain sequence as set forth in SEQ ID NO: 12), antibody h5A1002 (having a heavy chain sequence as set forth in SEQ ID NO: 13 and a light chain sequence as set forth in SEQ ID NO: 14), and control IgG1 (purchased from Biointron) were gradient-diluted (at a highest working concentration of 50 μg/ml, 10 gradients, diluted by 3 times for each gradient) and added. The tube was incubated at 4° C. for 30 min. 1 mL of PBS was added into the EP tube, and centrifugation was conducted 4° C. at a rate of 3,500 rpm for 5 min. The supernatant was removed. The EP tube was washed once with the PBS. The supernatant was removed after centrifugation. The cells were resuspended with PBS in a volume of 100 l/tube. An Alexa-647 labeled goat anti-human secondary antibody (purchased from Jackson lab) was added into the tube in a volume of 1 l/tube; and the plate was incubated in the dark at 4° C. for 30 min. The tube was washed twice with PBS, and the supernatant was removed after centrifugation. […]

T4 sequence (chain, as listed by the source limits assumed): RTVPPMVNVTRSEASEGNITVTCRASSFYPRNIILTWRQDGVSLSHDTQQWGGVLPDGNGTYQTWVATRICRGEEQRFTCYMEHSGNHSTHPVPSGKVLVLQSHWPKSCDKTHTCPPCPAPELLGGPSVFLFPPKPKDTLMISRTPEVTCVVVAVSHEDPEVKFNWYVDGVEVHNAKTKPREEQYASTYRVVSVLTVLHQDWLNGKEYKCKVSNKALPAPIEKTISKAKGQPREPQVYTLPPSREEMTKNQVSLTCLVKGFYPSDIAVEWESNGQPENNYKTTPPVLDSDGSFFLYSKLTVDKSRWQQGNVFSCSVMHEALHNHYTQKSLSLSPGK
T7 sequence (chain, as listed by the source limits assumed): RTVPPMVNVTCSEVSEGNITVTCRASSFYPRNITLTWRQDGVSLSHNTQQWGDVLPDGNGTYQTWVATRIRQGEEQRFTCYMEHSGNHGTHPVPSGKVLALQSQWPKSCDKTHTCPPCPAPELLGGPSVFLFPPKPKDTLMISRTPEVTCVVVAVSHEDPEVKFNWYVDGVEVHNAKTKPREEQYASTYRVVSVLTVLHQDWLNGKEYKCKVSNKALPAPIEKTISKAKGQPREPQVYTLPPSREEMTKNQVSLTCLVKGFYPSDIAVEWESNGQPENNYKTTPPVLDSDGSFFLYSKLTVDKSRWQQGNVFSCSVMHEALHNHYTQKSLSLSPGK
T2 sequence (chain, as listed by the source limits assumed): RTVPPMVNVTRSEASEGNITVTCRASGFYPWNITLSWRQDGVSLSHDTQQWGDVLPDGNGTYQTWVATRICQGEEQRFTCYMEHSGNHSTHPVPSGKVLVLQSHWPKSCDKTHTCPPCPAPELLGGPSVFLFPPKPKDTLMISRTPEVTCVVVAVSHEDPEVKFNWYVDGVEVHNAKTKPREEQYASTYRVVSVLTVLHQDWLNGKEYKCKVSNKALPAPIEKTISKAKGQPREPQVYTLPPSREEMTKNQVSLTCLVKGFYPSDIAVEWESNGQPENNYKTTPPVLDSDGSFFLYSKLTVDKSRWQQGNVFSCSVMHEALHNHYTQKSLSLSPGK
T5 sequence (chain, as listed by the source limits assumed): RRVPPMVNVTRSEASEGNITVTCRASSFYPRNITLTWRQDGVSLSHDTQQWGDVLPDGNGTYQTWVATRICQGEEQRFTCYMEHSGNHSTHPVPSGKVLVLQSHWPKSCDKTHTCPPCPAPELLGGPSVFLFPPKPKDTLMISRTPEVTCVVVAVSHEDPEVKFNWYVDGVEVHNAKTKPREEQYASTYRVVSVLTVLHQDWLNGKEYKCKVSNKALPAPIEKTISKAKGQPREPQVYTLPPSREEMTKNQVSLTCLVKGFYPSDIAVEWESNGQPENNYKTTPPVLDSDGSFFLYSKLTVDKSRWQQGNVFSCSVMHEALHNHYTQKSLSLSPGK
T3 sequence (chain, as listed by the source limits assumed): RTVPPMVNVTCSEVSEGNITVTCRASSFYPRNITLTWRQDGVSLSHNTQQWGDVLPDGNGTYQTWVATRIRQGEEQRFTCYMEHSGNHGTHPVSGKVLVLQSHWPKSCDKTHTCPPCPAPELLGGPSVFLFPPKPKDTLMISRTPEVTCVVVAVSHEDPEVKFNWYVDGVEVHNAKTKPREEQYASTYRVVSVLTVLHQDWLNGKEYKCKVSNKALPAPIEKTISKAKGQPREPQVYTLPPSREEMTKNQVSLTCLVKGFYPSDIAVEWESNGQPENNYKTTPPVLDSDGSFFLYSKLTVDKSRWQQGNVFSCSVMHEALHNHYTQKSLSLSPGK
T6 sequence (chain, as listed by the source limits assumed): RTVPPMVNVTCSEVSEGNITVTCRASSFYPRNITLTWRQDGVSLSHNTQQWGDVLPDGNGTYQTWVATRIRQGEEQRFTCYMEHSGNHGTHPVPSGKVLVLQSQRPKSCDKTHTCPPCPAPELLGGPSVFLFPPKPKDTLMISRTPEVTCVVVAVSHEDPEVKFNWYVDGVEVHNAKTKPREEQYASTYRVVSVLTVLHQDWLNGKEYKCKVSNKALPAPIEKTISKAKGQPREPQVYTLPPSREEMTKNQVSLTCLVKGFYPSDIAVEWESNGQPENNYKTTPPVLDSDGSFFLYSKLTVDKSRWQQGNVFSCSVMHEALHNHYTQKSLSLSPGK

B1: maternal humanized antibody h5A1 (antibody, human IgG1, kappa, V domains shown)
VH: QVQLQESGPGLVKPSETLSLTCTVSGFSLTTYGVHWIRQPPGKGLEWIGMIWTDGTTDYNAAFISRVTISVDTSKNQFSLKLSSVTAADTAVYYCARKGHGYYYAMDYWGQGTLVTVSS
VL: EIVLTQSPGTLSLSPGERATLSCTASSSVSSSYLHWYQQKPGQAPRLLIYSTSNLASGIPDRFSGSGSGTDFTLTISRLEPEDFAVYYCHQYHRSPFTFGQGTKLEIKR
notes: Human IgG1, kappa; The full chains are stated for the ELISA and flow cytometry; also called h5A1-hIgG1; maternal antibody h5A1
Kd [1]: 0.215 µM | koff [1]: 0.000641 s⁻¹ | kon [1]: 2970 M⁻¹ s⁻¹ | EC50 (read off the curve) (MICA002α3-Fc): ~0.3 mg/L | EC50 (read off the curve) (MICA005α3-Fc): ~0.4 mg/L | binding result (MICA008α3-Fc): binds | EC50 (read off the curve) (MICA004α3-Fc): ~0.07 mg/L | EC50 (read off the curve) (MICB001α3-Fc): ~0.07 mg/L | EC50 (read off the curve) (MICB005α3-Fc): ~0.05 mg/L | EC50 (read off the curve) [2]: ~3 mg/L
